According to the Human Domainome abundance scans (Beltran et al. 2025):
± gives the uncertainty stated by the source.

B1: Ankyrin-2, residues 3571 to 3650; numbered along this chain, Q01484 (parent)
chain: ERLAYIADHLGFSWTELARELDFTEEQIHQIRIENPNSLQDQSHALLKYWLERDGKHATDTNLVECLTKINRMDIVHLME

Variants of: B1
Assay: abundance fitness (aPCA) (normalised: wild type 0, dead -1); higher = more abundant; growth selection in yeast, the domain comes from the species named
Details: Homo sapiens

Row | Variant | abundance fitness
1 | ERLAYIADHLGFSWTELARELDFTEEQIHQIRIENPNSLTDQSHALLKYWLERDGKHATDTNLVECLTKINRMDIVHLME [Q40T] | -0.033 ± 0.13
2 | ERLAYIADHLGFSWTELARELDFTEEQIHQIRIENPNSLADQSHALLKYWLERDGKHATDTNLVECLTKINRMDIVHLME [Q40A] | -0.104 ± 0.15
3 | ERLAYIADHLGFSWTELARELDFTEEQIHQIRIENPNSLSDQSHALLKYWLERDGKHATDTNLVECLTKINRMDIVHLME [Q40S] | -0.069 ± 0.075
4 | ERLAYIADHLGFSWTELARELDFTEEQIHQIRIENPNSLDDQSHALLKYWLERDGKHATDTNLVECLTKINRMDIVHLME [Q40D] | 0.117 ± 0.25
5 | ERLAYIADHLGFSWTELARELDFTEEQIHQIRIENPNSLPDQSHALLKYWLERDGKHATDTNLVECLTKINRMDIVHLME [Q40P] | -0.045 ± 0.097
6 | ERLAYIADHLGFSWTELARELDFTEEQIHQIRIENPNSLWDQSHALLKYWLERDGKHATDTNLVECLTKINRMDIVHLME [Q40W] | -0.065 ± 0.095
7 | ERLAYIADHLGFSWTELARELDFTEEQIHQIRIENPNSLGDQSHALLKYWLERDGKHATDTNLVECLTKINRMDIVHLME [Q40G] | -0.146 ± 0.095
8 | ERLAYIADHLGFSWTELARELDFTEEQIHQIRIENPNSLRDQSHALLKYWLERDGKHATDTNLVECLTKINRMDIVHLME [Q40R] | -0.07 ± 0.08
9 | ERLAYIADHLGFSWTELARELDFTEEQIHQIRIENPNSLCDQSHALLKYWLERDGKHATDTNLVECLTKINRMDIVHLME [Q40C] | -0.16 ± 0.13
10 | ERLAYIADHLGFSWTELARELDFTEEQIHQIRIENPNSLEDQSHALLKYWLERDGKHATDTNLVECLTKINRMDIVHLME [Q40E] | 0.051 ± 0.18
11 | ERLAYIADHLGFSWTELARELDFTEEQIHQIRIENPNSLIDQSHALLKYWLERDGKHATDTNLVECLTKINRMDIVHLME [Q40I] | -0.124 ± 0.3
12 | ERLAYIADHLGFSWTELARELDFTEEQIHQIRIENPNSLLDQSHALLKYWLERDGKHATDTNLVECLTKINRMDIVHLME [Q40L] | -0.171 ± 0.095
13 | ERLAYIADHLGFSWTELARELDFTEEQIHQIRIENPNSLQCQSHALLKYWLERDGKHATDTNLVECLTKINRMDIVHLME [D41C] | -0.109 ± 0.072
14 | ERLAYIADHLGFSWTELARELDFTEEQIHQIRIENPNSLQEQSHALLKYWLERDGKHATDTNLVECLTKINRMDIVHLME [D41E] | -0.077 ± 0.11
15 | ERLAYIADHLGFSWTELARELDFTEEQIHQIRIENPNSLQFQSHALLKYWLERDGKHATDTNLVECLTKINRMDIVHLME [D41F] | -0.168 ± 0.073
16 | ERLAYIADHLGFSWTELARELDFTEEQIHQIRIENPNSLQAQSHALLKYWLERDGKHATDTNLVECLTKINRMDIVHLME [D41A] | -0.01 ± 0.071
17 | ERLAYIADHLGFSWTELARELDFTEEQIHQIRIENPNSFQDQSHALLKYWLERDGKHATDTNLVECLTKINRMDIVHLME [L39F] | -0.013 ± 0.14
18 | ERLAYIADHLGFSWTELARELDFTEEQIHQIRIENPNSAQDQSHALLKYWLERDGKHATDTNLVECLTKINRMDIVHLME [L39A] | 0.031 ± 0.072

Row | Variant | abundance fitness
19 | ERLAYIADHLGFSWTELARELDFTEEQIHQIRIENPNSVQDQSHALLKYWLERDGKHATDTNLVECLTKINRMDIVHLME [L39V] | -0.043 ± 0.069
20 | ERLAYIADHLGFSWTELARELDFTEEQIHQIRIENPNSMQDQSHALLKYWLERDGKHATDTNLVECLTKINRMDIVHLME [L39M] | -0.042 ± 0.12
21 | ERLAYIADHLGFSWTELARELDFTEEQIHQIRIENPNSTQDQSHALLKYWLERDGKHATDTNLVECLTKINRMDIVHLME [L39T] | -0.134 ± 0.074
22 | ERLAYIADHLGFSWTELARELDFTEEQIHQIRIENPNSWQDQSHALLKYWLERDGKHATDTNLVECLTKINRMDIVHLME [L39W] | -0.045 ± 0.12
23 | ERLAYIADHLGFSWTELARELDFTEEQIHQIRIENPNSEQDQSHALLKYWLERDGKHATDTNLVECLTKINRMDIVHLME [L39E] | -0.027 ± 0.058
24 | ERLAYIADHLGFSWTELARELDFTEEQIHQIRIENPNSQQDQSHALLKYWLERDGKHATDTNLVECLTKINRMDIVHLME [L39Q] | -0.102 ± 0.11
25 | ERLAYIADHLGFSWTELARELDFTEEQIHQIRIENPNSCQDQSHALLKYWLERDGKHATDTNLVECLTKINRMDIVHLME [L39C] | -0.017 ± 0.14
26 | ERLAYIADHLGFSWTELARELDFTEEQIHQIRIENPNSGQDQSHALLKYWLERDGKHATDTNLVECLTKINRMDIVHLME [L39G] | -0.108 ± 0.049
27 | ERLAYIADHLGFSWTELARELDFTEEQIHQIRIENPNSDQDQSHALLKYWLERDGKHATDTNLVECLTKINRMDIVHLME [L39D] | -0.031 ± 0.11
28 | ERLAYIADHLGFSWTELARELDFTEEQIHQIRIENPNSHQDQSHALLKYWLERDGKHATDTNLVECLTKINRMDIVHLME [L39H] | -0.155 ± 0.14
29 | ERLAYIADHLGFSWTELARELDFTEEQIHQIRIENPNSYQDQSHALLKYWLERDGKHATDTNLVECLTKINRMDIVHLME [L39Y] | 0.076 ± 0.095
30 | ERLAYIADHLGFSWTELARELDFTEEQIHQIRIENPNSPQDQSHALLKYWLERDGKHATDTNLVECLTKINRMDIVHLME [L39P] | -0.016 ± 0.086
31 | ERLAYIADHLGFSWTELARELDFTEEQIHQIRIENPNSKQDQSHALLKYWLERDGKHATDTNLVECLTKINRMDIVHLME [L39K] | -0.087 ± 0.13
32 | ERLAYIADHLGFSWTELARELDFTEEQIHQIRIENPNSIQDQSHALLKYWLERDGKHATDTNLVECLTKINRMDIVHLME [L39I] | 0.071 ± 0.25
33 | ERLAYIADHLGFSWTELARELDFTEEQIHQIRIENPNSRQDQSHALLKYWLERDGKHATDTNLVECLTKINRMDIVHLME [L39R] | -0.109 ± 0.053
34 | ERLAYIADHLGFSWTELARELDFTEEQIHQIRIENPNSSQDQSHALLKYWLERDGKHATDTNLVECLTKINRMDIVHLME [L39S] | -0.025 ± 0.061
35 | ERLAYIADHLGFSWTELARELDFTEEQIHQIRIENPNYLQDQSHALLKYWLERDGKHATDTNLVECLTKINRMDIVHLME [S38Y] | -0.474 ± 0.41
